Peptide text beside a SMILES is read from it.
How the values were obtained:
[1] = target: neutral endopeptidase (NEP) (Homo sapiens, UniProt P08473)
NPR-B [2] = target: T1, NPR-B (Homo sapiens, UniProt P20594); assay: Membrane guanylyl cyclase (cGMP) assay, NPR-B; type: biochemical
T1 sequence (P20594 23-1047): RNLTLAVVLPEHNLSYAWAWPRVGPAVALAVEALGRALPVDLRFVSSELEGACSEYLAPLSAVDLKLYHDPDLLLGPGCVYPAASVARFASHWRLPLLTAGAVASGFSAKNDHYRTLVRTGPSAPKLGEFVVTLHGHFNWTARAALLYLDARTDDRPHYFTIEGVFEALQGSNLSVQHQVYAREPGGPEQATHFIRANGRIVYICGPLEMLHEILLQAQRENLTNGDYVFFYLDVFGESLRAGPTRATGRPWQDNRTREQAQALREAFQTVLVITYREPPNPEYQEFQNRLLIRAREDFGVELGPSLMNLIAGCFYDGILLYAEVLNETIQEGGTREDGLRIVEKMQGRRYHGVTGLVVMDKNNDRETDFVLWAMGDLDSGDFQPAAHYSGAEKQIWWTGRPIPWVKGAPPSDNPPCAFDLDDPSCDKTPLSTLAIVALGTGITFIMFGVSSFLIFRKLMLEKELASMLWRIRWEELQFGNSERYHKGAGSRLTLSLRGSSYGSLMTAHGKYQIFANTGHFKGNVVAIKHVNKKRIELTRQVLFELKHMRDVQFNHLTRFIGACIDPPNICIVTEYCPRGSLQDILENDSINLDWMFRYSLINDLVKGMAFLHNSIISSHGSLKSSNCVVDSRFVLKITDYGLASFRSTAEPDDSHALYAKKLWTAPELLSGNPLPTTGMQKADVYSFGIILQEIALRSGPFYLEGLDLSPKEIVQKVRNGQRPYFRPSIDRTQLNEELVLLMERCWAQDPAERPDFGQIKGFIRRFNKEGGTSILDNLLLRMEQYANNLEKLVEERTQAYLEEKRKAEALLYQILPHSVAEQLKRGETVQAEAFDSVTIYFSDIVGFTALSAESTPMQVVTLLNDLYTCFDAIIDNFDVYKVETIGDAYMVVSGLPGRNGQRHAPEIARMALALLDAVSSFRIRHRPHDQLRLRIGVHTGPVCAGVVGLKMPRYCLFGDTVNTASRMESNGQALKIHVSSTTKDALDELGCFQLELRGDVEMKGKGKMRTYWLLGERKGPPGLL

NPR-B [3] = target: T1, NPR-B; assay: Whole cell guanylyl cyclase (cGMP) assay, NPR-B; type: cell-based; parameters: expressed in transfected cells; settings: for efficacy relative to CNP / potency relative to CNP (times less than that of CNP): NPR-B whole cell assay (FIG. 21C); for potency compared with CNP22: CNP22 position 17 point mutants, NPR-B whole cell cGMP assay (FIG. 30)
Protocol: HEK293S cells in a semi-confluent 75 cm2 flask are transfected with 30 μg of plasmid DNA coding for the appropriate receptor, e.g., human NPR-B or NPR-A, using Lipofectamine-2000CD. Alternatively, a stable polyclonal HEK293 S cell line expressing either human NPR-B or NPR-A was used. 24 hours after transfection, cells are trypsinized and plated into 48-well plates at 1×10^5 cells/well. Guanylyl cyclase assay is carried out 24 hours post-plating. Cells are first incubated for 30 minutes at 37° C. with serum-free DMEM medium. Then, they are incubated in triplicate with or without increasing concentrations of reference or test proteins in serum-free DMEM supplemented with 1 mM IBMX and 0.5% BSA, at 37° C. for 30 minutes to one hour. CNP serves as a suitable reference for NPR-B, while ANP is a suitable reference for NPR-A. Finally, cells are washed with ice-cold PBS and solubilized in lysis buffer from Catchpoint cGMP kit (Molecular devices). Concentrations of cGMP in lysate are determined using the Catchpoint cGMP kit. Dose-response curves are analysed with GraphPad Prism 5 software using non-linear regression with four-parameter logistic equation.

[4] = first NPR-B membrane assay (FIG. 21A)
[5] = second NPR-B membrane assay (FIG. 21B)

Sequence of neutral endopeptidase (NEP) (P08473 whole entry): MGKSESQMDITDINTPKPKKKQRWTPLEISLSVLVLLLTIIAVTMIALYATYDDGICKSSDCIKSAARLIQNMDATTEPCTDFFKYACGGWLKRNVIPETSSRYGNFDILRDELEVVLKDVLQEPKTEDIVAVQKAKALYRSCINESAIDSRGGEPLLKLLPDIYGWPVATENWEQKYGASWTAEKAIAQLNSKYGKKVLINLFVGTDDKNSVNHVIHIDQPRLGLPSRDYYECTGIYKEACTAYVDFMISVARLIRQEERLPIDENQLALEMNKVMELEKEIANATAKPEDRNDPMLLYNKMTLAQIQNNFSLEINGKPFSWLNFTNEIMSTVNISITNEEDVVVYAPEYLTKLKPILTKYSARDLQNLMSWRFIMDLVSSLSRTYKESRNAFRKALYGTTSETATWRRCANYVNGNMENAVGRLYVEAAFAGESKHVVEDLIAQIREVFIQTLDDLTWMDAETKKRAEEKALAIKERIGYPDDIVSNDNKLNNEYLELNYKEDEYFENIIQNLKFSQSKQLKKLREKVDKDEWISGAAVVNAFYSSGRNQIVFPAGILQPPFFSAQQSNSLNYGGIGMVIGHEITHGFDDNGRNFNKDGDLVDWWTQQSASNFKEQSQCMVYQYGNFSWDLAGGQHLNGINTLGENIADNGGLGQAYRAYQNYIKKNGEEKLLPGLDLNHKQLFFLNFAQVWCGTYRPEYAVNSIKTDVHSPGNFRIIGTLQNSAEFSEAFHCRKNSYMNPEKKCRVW

## CC[C@H](C)[C@@H]1NC(=O)[C@H](CCCNC(=N)N)NC(=O)[C@H](CC(=O)O)NC(=O)[C@H](CC(C)C)NC(=O)[C@H](CCCCN)NC(=O)[C@H](CC(C)C)NC(=O)CNC(=O)[C@H](Cc2ccccc2)NC(=O)[C@@H](NC(=O)CNC(=O)[C@H](CCCCN)NC(=O)[C@H](CO)NC(=O)[C@H](CC(C)C)NC(=O)CN)CSSC[C@@H](C(=O)N[C@@H](Cc2c[nH]cn2)C(=O)N[C@@H](CO)C(=O)N[C@@H](CC(C)C)C(=O)N[C@@H](CCCNC(=N)N)C(=O)N[C@@H](CC(=O)O)C(=O)N2CCC[C@H]2C(=O)N[C@@H](CCCNC(=N)N)C(=O)N2CCC[C@H]2C(=O)N[C@@H](CC(N)=O)C(=O)N[C@@H](C)C(=O)N2CCC[C@H]2C(=O)N[C@@H](CO)C(=O)N[C@H](C(=O)N[C@@H](CO)C(=O)N[C@@H](C)C(=O)O)[C@@H](C)O)NC(=O)CNC(=O)[C@H](CC(C)C)NC(=O)CNC(=O)[C@H](CO)NC(=O)[C@H](CCSC)NC(=O)[C@H](CO)NC(=O)CNC1=O [CDNP-H1] (HELM PEPTIDE1{G.L.S.K.G.C.F.G.L.K.L.D.R.I.G.S.M.S.G.L.G.C.H.S.L.R.D.P.R.P.N.A.P.S.T.S.A}$PEPTIDE1,PEPTIDE1,6:R3-22:R3$$$V2.0)
[1]
  sensitivity to NEP degradation: comparable NEP sensitivity

## CC[C@H](C)[C@@H]1NC(=O)[C@H](CCCNC(=N)N)NC(=O)[C@H](CC(=O)O)NC(=O)[C@H](CC(C)C)NC(=O)[C@H](CCCCN)NC(=O)[C@H](CC(C)C)NC(=O)CNC(=O)[C@H](Cc2ccccc2)NC(=O)[C@@H](NC(=O)CNC(=O)[C@H](CCCCN)NC(=O)[C@H](CO)NC(=O)[C@H](CC(C)C)NC(=O)CN)CSSC[C@@H](C(=O)N[C@@H](CCCCN)C(=O)N[C@@H](CO)C(=O)N[C@@H](CC(C)C)C(=O)N[C@@H](CCCNC(=N)N)C(=O)N[C@@H](CC(=O)O)C(=O)N2CCC[C@H]2C(=O)N[C@@H](CCCNC(=N)N)C(=O)N2CCC[C@H]2C(=O)N[C@@H](CC(N)=O)C(=O)N[C@@H](C)C(=O)N2CCC[C@H]2C(=O)N[C@@H](CO)C(=O)N[C@H](C(=O)N[C@@H](CO)C(=O)N[C@@H](C)C(=O)O)[C@@H](C)O)NC(=O)CNC(=O)[C@H](CC(C)C)NC(=O)CNC(=O)[C@H](CO)NC(=O)[C@H](CCSC)NC(=O)[C@H](CO)NC(=O)CNC1=O [CDNP-K1] (HELM PEPTIDE1{G.L.S.K.G.C.F.G.L.K.L.D.R.I.G.S.M.S.G.L.G.C.K.S.L.R.D.P.R.P.N.A.P.S.T.S.A}$PEPTIDE1,PEPTIDE1,6:R3-22:R3$$$V2.0)
[1]
  sensitivity to NEP degradation: slightly more sensitive to NEP than the other CDNP variants

## Fc-CNP53-A: N-terminal Fc, Gly3 linker, CNP53 with position 48 mutated to alanine; SEQ ID NO: 518
NPR-B [2]; [4]
  efficacy relative to CNP: slightly better efficacy than CNP
  potency relative to CNP (times less than that of CNP): more than twice the potency as CNP
NPR-B [2]; [5]
  efficacy relative to CNP: comparable efficacy
  potency relative to CNP (times less than that of CNP): 1.3 times
NPR-B [3]
  efficacy relative to CNP: comparable efficacy
  potency relative to CNP (times less than that of CNP): 5.4 times

## CNP-F17: CNP22 point mutant at position 17; SEQ ID NO: 119 (GLSKGCFGLKLDRIGSFSGLGC; Synthetic Construct (CNP-F17 (C15)))
NPR-B [3]
  potency compared with CNP22: comparable potency to CNP22

## CNP-R17: CNP22 point mutant at position 17; SEQ ID NO: 157 (GLSKGCFGLKLDRIGSRSGLGC; Synthetic Construct (CNP-R17))
NPR-B [3]
  potency compared with CNP22: improved potency

## CC[C@H](C)[C@@H]1NC(=O)[C@H](CCCNC(=N)N)NC(=O)[C@H](CC(=O)O)NC(=O)[C@H](CC(C)C)NC(=O)[C@H](CCCCN)NC(=O)[C@H](CC(C)C)NC(=O)CNC(=O)[C@H](Cc2ccccc2)NC(=O)[C@@H](NC(=O)CNC(=O)[C@H](CCCCN)NC(=O)[C@H](CO)NC(=O)[C@H](CC(C)C)NC(=O)CN)CSSC[C@@H](C(=O)N[C@@H](CC(N)=O)C(=O)N[C@@H](CO)C(=O)N[C@@H](CC(C)C)C(=O)N[C@@H](CCCNC(=N)N)C(=O)N[C@@H](CC(=O)O)C(=O)N2CCC[C@H]2C(=O)N[C@@H](CCCNC(=N)N)C(=O)N2CCC[C@H]2C(=O)N[C@@H](CC(N)=O)C(=O)N[C@@H](C)C(=O)N2CCC[C@H]2C(=O)N[C@@H](CO)C(=O)N[C@H](C(=O)N[C@@H](CO)C(=O)N[C@@H](C)C(=O)O)[C@@H](C)O)NC(=O)CNC(=O)[C@H](CC(C)C)NC(=O)CNC(=O)[C@H](CO)NC(=O)[C@H](CCSC)NC(=O)[C@H](CO)NC(=O)CNC1=O [CDNP-N1] (HELM PEPTIDE1{G.L.S.K.G.C.F.G.L.K.L.D.R.I.G.S.M.S.G.L.G.C.N.S.L.R.D.P.R.P.N.A.P.S.T.S.A}$PEPTIDE1,PEPTIDE1,6:R3-22:R3$$$V2.0)
[1]
  sensitivity to NEP degradation: comparable NEP sensitivity

## CNP-L17: CNP22 point mutant at position 17; SEQ ID NO: 120 (GLSKGCFGLKLDRIGSLSGLGC; Synthetic Construct (CNP-L17 (C16)))
NPR-B [3]
  potency compared with CNP22: comparable potency to CNP22

## CNP-T17: CNP22 point mutant at position 17; SEQ ID NO: 122 (GLSKGCFGLKLDRIGSTSGLGC; Synthetic Construct (CNP-T17 (C18)))
NPR-B [3]
  potency compared with CNP22: comparable potency to CNP22

## CC[C@H](C)[C@@H]1NC(=O)[C@H](CCCNC(=N)N)NC(=O)[C@H](CC(=O)O)NC(=O)[C@H](CC(C)C)NC(=O)[C@H](CCCCN)NC(=O)[C@H](CC(C)C)NC(=O)CNC(=O)[C@H](Cc2ccccc2)NC(=O)[C@@H](NC(=O)CNC(=O)[C@H](CCCCN)NC(=O)[C@H](CO)NC(=O)[C@H](CC(C)C)NC(=O)CN)CSSC[C@@H](C(=O)NCC(=O)N[C@@H](CO)C(=O)N[C@@H](CC(C)C)C(=O)N[C@@H](CCCNC(=N)N)C(=O)N[C@@H](CC(=O)O)C(=O)N2CCC[C@H]2C(=O)N[C@@H](CCCNC(=N)N)C(=O)N2CCC[C@H]2C(=O)N[C@@H](CC(N)=O)C(=O)N[C@@H](C)C(=O)N2CCC[C@H]2C(=O)N[C@@H](CO)C(=O)N[C@H](C(=O)N[C@@H](CO)C(=O)N[C@@H](C)C(=O)O)[C@@H](C)O)NC(=O)CNC(=O)[C@H](CC(C)C)NC(=O)CNC(=O)[C@H](CO)NC(=O)[C@H](CCSC)NC(=O)[C@H](CO)NC(=O)CNC1=O [CDNP-G1] (HELM PEPTIDE1{G.L.S.K.G.C.F.G.L.K.L.D.R.I.G.S.M.S.G.L.G.C.G.S.L.R.D.P.R.P.N.A.P.S.T.S.A}$PEPTIDE1,PEPTIDE1,6:R3-22:R3$$$V2.0)
[1]
  sensitivity to NEP degradation: comparable NEP sensitivity

## Fc-CNP53-AAA: Fc-CNP53-A with residues 30 and 31 of CNP53 mutated to alanine; SEQ ID NO: 520
NPR-B [2]; [4]
  efficacy relative to CNP: about two-thirds of CNP's efficacy
  potency relative to CNP (times less than that of CNP): 1.5 times
NPR-B [2]; [5]
  efficacy relative to CNP: comparable efficacy
  potency relative to CNP (times less than that of CNP): 3.3 times
NPR-B [3]
  efficacy relative to CNP: 74%
  potency relative to CNP (times less than that of CNP): 14 times

## CNP-Y17: CNP22 point mutant at position 17; SEQ ID NO: 158 (GLSKGCFGLKLDRIGSYSGLGC; Synthetic Construct (CNP-Y17))
NPR-B [3]
  potency compared with CNP22: improved potency

From patent US9266939B2, “Compositions comprising natriuretic peptides and methods of use thereof” (Alexion Pharmaceuticals, Inc., priority 2010, dated 2016)
